Test results as given in patent US20220289848A1.

What was measured:
PD-L1 = PD-L1 (UniProt Q9NZQ7); test: FACS binding, CHO-K1 cells expressing PD-L1; flat curve
CD47 = CD47 (UniProt Q08722); test: FACS binding, CHO-K1 cells expressing CD47; flat curve
[1] = biological target: human PD-L1 on PD-L1 aAPC/CHO-K1 Cells (human) (UniProt Q9NZQ7); test: cell-based or functional assay
Chain of human PD-L1 on PD-L1 aAPC/CHO-K1 Cells (human) (Q9NZQ7 19-290): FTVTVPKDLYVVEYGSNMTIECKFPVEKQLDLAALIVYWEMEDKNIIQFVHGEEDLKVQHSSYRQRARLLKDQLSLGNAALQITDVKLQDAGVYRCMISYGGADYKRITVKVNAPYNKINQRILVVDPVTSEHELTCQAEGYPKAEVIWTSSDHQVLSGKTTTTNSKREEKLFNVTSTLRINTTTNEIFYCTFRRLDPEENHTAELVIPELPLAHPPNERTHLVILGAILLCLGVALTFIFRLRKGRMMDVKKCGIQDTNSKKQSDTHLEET

Chain of PD-L1 (Q9NZQ7 19-290): as above

EC50 (PD-L1)	EC50 (CD47)	PD-1/PD-L1 blockade bioassay, relative activity (reference) [1]	Substance
38.3 nM	0.00446 nM		Human IgG
		100%	Tecentriq biosimilar (antibody)
